Target: T1, eIF4E (purified, from pTXB1-eIF4E) (UniProt P06730 1-217)
T1 construct: also called purified eIF4E; source: pTXB1-eIF4E; protein expression and purification as previously described (12)
Test: pull-down; competitive: GST-RBM38 on GST beads, 250 µg purified eIF4E and 10 µM peptide in lysis buffer (50 mM Tris pH 7.5, 150 mM NaCl, 0.1% Triton X-100), rocked overnight, washed 3x, western blot
Details: both partners purified

T1 sequence (P06730 whole entry): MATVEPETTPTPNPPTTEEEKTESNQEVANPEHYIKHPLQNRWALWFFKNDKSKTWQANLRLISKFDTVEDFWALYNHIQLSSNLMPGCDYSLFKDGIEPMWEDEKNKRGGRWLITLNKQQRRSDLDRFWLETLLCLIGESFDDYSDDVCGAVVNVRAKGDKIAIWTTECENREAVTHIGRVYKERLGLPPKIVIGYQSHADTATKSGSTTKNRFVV

- binding result: binds
B1: Pep7 (peptide)
peptide: PSAASPV
notes: also called Pep7-PSAASPV; shortened 7-amino acid peptide; source: synthetic peptide (GenScript)
